Measured values taken from paper PMC12095075.

Biological target: HIF2A N-terminal region (bHLH-PAS);BMAL1 N-terminal region (bHLH-PAS) (mouse;mouse) (UniProt P97481+Q9WTL8)
Experiment: SPR
Conditions: 1:1 fit, error is fit error, SPR: 20 mM MES pH 5.5, 300 mM NaCl, 0.05% Tween-20, 0.02% BSA, EMSA: 10 mM MES pH 6.0, 50 mM KCl, 1 mM DTT, 2.5% glycerol, 0.05% NP-40, 5 mM MgCl2, room …

HIF2A N-terminal region (bHLH-PAS);BMAL1 N-terminal region (bHLH-PAS) (mouse;mouse), sequence (P97481 3-361, chain 1 of 2): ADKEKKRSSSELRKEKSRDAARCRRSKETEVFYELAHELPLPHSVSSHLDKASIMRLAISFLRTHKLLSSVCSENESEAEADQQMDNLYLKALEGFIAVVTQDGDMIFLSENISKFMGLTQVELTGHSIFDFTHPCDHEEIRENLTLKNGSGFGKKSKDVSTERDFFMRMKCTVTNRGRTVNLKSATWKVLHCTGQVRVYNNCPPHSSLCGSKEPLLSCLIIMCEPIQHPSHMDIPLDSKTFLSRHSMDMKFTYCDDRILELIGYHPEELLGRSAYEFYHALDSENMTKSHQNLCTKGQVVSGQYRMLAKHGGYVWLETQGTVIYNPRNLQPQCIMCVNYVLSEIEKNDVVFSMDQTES
HIF2A N-terminal region (bHLH-PAS);BMAL1 N-terminal region (bHLH-PAS) (mouse;mouse), sequence (Q9WTL8 68-488, chain 2 of 2): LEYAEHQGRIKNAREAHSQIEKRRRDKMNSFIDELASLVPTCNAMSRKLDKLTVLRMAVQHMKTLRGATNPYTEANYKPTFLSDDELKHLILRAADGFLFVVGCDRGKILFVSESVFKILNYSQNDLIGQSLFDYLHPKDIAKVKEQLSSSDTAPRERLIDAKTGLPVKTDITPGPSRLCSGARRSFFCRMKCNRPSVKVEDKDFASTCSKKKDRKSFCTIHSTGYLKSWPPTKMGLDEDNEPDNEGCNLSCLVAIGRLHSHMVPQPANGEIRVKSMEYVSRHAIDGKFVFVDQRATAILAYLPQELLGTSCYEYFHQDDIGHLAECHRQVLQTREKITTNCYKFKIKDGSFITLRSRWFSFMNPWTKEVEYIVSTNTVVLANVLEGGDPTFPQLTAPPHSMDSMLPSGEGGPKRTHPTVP

Substance	Kd (ka 2.10e5 1/(M*s), kd 7.85e-4 1/s) [nM]	Kd (ka 1.75e5 1/(M*s), kd 8.45e-4 1/s) [nM]
22-bp E-box duplex, SPR	3.74	–
22-bp HRE duplex, SPR	–	4.84
